Ends that are not written are not given here. Peptide text beside a SMILES is read from it.
What was measured:
[1] = Solubility of expressed or synthesized polypeptides; format: physicochemical
Description: For proteins expressed in E. coli that were difficult to dissolve in water, total cells were resuspended and sonicated in 8 M urea buffer (0. IM Na-phosphate, 10 mM Tris buffer, pH8.0). The total cell lysate was centrifuged, and supernatants were collected. Ni-agarose was added into the supernatants and mixed gently at room temperature for 30 min. The Ni-agarose resin was washed with buffer (8 M urea, 0.1 M Na-phosphate, 10 mM Tris buffer, pH6.3). The proteins were eluted with elution buffer (8 M urea, 0.1 M EDTA, 0.1 M Na-phosphate, 10 mM Tris buffer, pH 6.3) and dialyzed against buffer (pH 8.5, 10 mM Tris) with stepwise decreased urea. If the proteins still were insoluble in buffer, the solution pH was adjusted to 9 to 11 and sonicated at room temperature for 1 to 5 min.
Chemically synthesized polypeptides were dissolved in 10 mM Tris, pH 6.5 to 11 buffers depending on their solubility.

[2] = test system: tobacco leaves (cv. Xanth); details: in vivo
[3] = description of known elicitors; cited from earlier work
[4] = cited from earlier work; for heat stable (description): description of known elicitors
[5] = description of known elicitors; cited from earlier work; remark: listed apart in the source
[6] = test system: TMV; test: Percentage of TMV reduction on tobacco leaves; format: in vivo
[7] = test system: tomato; test: Plant growth enhancement with tomato; format: in vivo; details: 10 μg/ml
[8] = test system: tobacco; details: in vivo; cited from earlier work

CSCC[C@H](NC(=O)[C@H](CCSC)NC(=O)[C@H](CO)NC(=O)[C@H](CCSC)NC(=O)[C@H](CCSC)NC(=O)[C@H](CCSC)NC(=O)[C@H](CCSC)NC(=O)[C@H](CCSC)NC(=O)CNC(=O)[C@@H](NC(=O)[C@H](CC(C)C)NC(=O)[C@H](CC(C)C)NC(=O)CNC(=O)[C@H](C)NC(=O)[C@H](CC(C)C)NC(=O)[C@H](CCC(N)=O)NC(=O)[C@H](CC(N)=O)NC(=O)[C@@H](NC(=O)[C@@H](NC(=O)[C@H](CC(=O)O)NC(=O)[C@H](CC(N)=O)NC(=O)[C@H](CCC(N)=O)NC(=O)[C@H](CC(N)=O)NC(=O)CNC(=O)CNC(=O)CNC(=O)[C@H](CC(C)C)NC(=O)CN)[C@@H](C)O)C(C)C)[C@@H](C)O)C(=O)O [HrpNEa4370] (H-GLGGGNQNDTVNQLAGLLTGMMMMMSMM-OH; N-terminus and C-terminus assumed)
Solubility (Source column: Partial soluble) ([1]; Table 4, synthesized peptide, cell wraps over two lines 'Partial' 'soluble'): Partial

(NC): Superharpin building block HrpNEa140-180 with his-tag leader (QNDDSTSGTDSTSDSSDPMQQLLKMFSEIMQSLFGDGQDGT; also: His-tag leader; UniProt Q01099 140-180, looked up, fragment)
Soluble ([1]; Table 7, building blocks with his-tag leader): Yes

HrpNEa137180: E. coli expressed peptide, amino acids 137-180 of HrpNEa, His-tag fusion (STSQNDDSTSGTDSTSDSSDPMQQLLKMFSEIMQSLFGDGQDGT; also: His-tag fusion; UniProt Q01099 137-180, looked up, fragment)
HR activity in tobacco [2]: elicit HR activity | HR* (eliciting concentration) [2]: <5 µg/mL

HrpNEa140176: Synthesized peptide, amino acids 140-176 of HrpNEa, acidic plus helix units (QNDDSTSGTDSTSDSSDPMQQLLKMFSEIMQSLFGDG; UniProt Q01099 140-176, looked up, fragment)
HR activity (eliciting concentration) [2]: + < 5 μg/ml | HR activity in tobacco [2]: full activity of HR | HR* (eliciting concentration) [2]: <5 µg/mL

SEQ. ID. No. 8: Protein encoded by the dspE gene of Erwinia amylovora, about 198 kDa
pI (description) [3]: 8.98

hypersensitive response elicitor polypeptide or protein from Xanthomonas campestris pv. pelargonii: 20 kDa elicitor that includes the amino acid sequence of SEQ. ID. No. 18 (SSQQSPSAGSEQQLDQLLAM; Xanthomonas campestris pv. pelargonii)
heat stable (description) [4]: heat stable | protease sensitive [5]: protease sensitive

B1: SEQ. ID. No. 10: Protein encoded by the dspF gene, about 16 kDa (protein, listed as Erwinia amylovora)
chain: MTSSQQRVERFLQYFSAGCKTPIHLKDGVCALYNEQDEEAAVLEVPQHSDSLLLHCRIIEADPQTSITLYSMLLQLNFEMAAMRGCWLALDELHNVRLCFQQSLEHLDEASFSDIVSGFIEHAAEVREYIAQLDESSAA
pI (description) [3]: 4.45

B2: HrpNEa: Harpin hypersensitive response elicitor protein from E. amylovora, 403 amino acids (protein, listed as Erwinia amylovora)
chain: MSLNTSGLGASTMQISIGGAGGNNGLLGTSRQNAGLGGNSALGLGGGNQNDTVNQLAGLLTGMMMMMSMMGGGGLMGGGLGGGLGNGLGGSGGLGEGLSNALNDMLGGSLNTLGSKGGNNTTSTTNSPLDQALGINSTSQNDDSTSGTDSTSDSSDPMQQLLKMFSEIMQSLFGDGQDGTQGSSSGGKQPTEGEQNAYKKGVTDALSGLMGNGLSQLLGNGGLGGGQGGNAGTGLDGSSLGGKGLQNLSGPVDYQQLGNAVGTGIGMKAGIQALNDIGTHRHSSTRSFVNKGDRAMAKEIGQFMDQYPEVFGKPQYQKGPGQEVKTDDKSWAKALSKPDDDGMTPASMEQFNKAKGMIKRPMAGDTGNGNLQARGAGGSSLGIDAMMAGDAINNMALGKLGAA
pI (description) [3]: approximately 4.3 | Soluble ([1]; Table 8): Yes | Elicit HR [2]: 1—3 μg/ml | % TMV reduction on tobacco ([6]; 1 μg/ml): 10% | % TMV reduction on tobacco ([6]; 10 μg/ml): 55% | heat stable at 100° C. ([4]; 100° C.): at least 10 minutes | % Plant Growth Enhancement [7]: 11.68%

B3: 98 residue of N-terminal HrpNEa fragment: Smallest bacterially produced HrpNEa peptide with HR-eliciting activity (Laby 1997) (protein, UniProt Q01099 1-98, looked up, fragment)
chain: MSLNTSGLGASTMQISIGGAGGNNGLLGTSRQNAGLGGNSALGLGGGNQNDTVNQLAGLLTGMMMMMSMMGGGGLMGGGLGGGLGNGLGGSGGLGEGL
HR elicitation (literature) [8]: displayed HR-eliciting activity

B4: amino acids 137 to 204 of HrpNEa: HR active fragment of HrpNEa isolated after digestion with protease (protein, UniProt Q01099 137-204, looked up, fragment)
chain: STSQNDDSTSGTDSTSDSSDPMQQLLKMFSEIMQSLFGDGQDGTQGSSSGGKQPTEGEQNAYKKGVTD
HR elicitation (literature) [8]: hypersensitive response active

B5: HrpNEch: Harpin protein from E. chrysanthemi, subfamily N (protein, listed as Erwinia chrysanthemi)
chain: MQITIKAHIGGDLGVSGLGAQGLKGLNSAASSLGSSVDKLSSTIDKLTSALTSMMFGGALAQGLGASSKGLGMSNQLGQSFGNGAQGASNLLSVPKSGGDALSKMFDKALDDLLGHDTVTKLTNQSNQLANSMLNASQMTQGNMNAFGSGVNNALSSILGNGLGQSMSGFSQPSLGAGGLQGLSGAGAFNQLGNAIGMGVGQNAALSALSNVSTHVDGNNRHFVDKEDRGMAKEIGQFMDQYPEIFGKPEYQKDGWSSPKTDDKSWAKALSKPDDDGMTGASMDKFRQAMGMIKSAVAGDTGNTNLNLRGAGGASLGIDAAVVGDKIANMSLGKLANA
heat stable (description) [4]: heat stable

B6: HrpWEa: Harpin protein from E. amylovora, subfamily W, 447 amino acids (protein, listed as Erwinia amylovora)
chain: MSILTLNNNTSSSPGLFQSGGDNGLGGHNANSALGQQPIDRQTIEQMAQLLAELLKSLLSPQSGNAATGAGGNDQTTGVGNAGGLNGRKGTAGTTPQSDSQNMLSEMGNNGLDQAITPDGQGGGQIGDNPLLKAMLKLIARMMDGQSDQFGQPGTGNNSASSGTSSSGGSPFNDLSGGKAPSGNSPSGNYSPVSTFSPPSTPTSPTSPLDFPSSPTKAAGGSTPVTDHPDPVGSAGIGAGNSVAFTSAGANQTVLHDTITVKAGQVFDGKGQTFTAGSELGDGGQSENQKPLFILEDGASLKNVTMGDDGADGIHLYGDAKIDNLHVTNVGEDAITVKPNSAGKKSHVEITNSSFEHASDKILQLNADTNLSVDNVKAKDFGTFVRTNGGQQGNWDLNLSHISAEDGKFSFVKSDSEGLNVNTSDISLGDVENHYKVPMSANLKVAE
heat stable (description) [4]: heat stable | protease sensitive [5]: protease sensitive
